Experiments:
E. coli LigA [1] = type: biochemical; settings: specific activity by protein titration under steady-state conditions, normalized to wild-type ligase
Method: (§1) FIG. 12A: Aliquots (5 μg) of wild-type (WT) E. coli ligase, N-terminal deletion mutants NΔ38 and NΔ78, and the full-length ligase proteins containing the indicated alanine mutations in domain Ia were analyzed by SDS-PAGE. A Coomassie blue-stained gel is shown. FIG. 12B: Ligase adenylation reaction mixtures (20 μl) containing 50 mM Tris-HCl (pH 7.5), 5 mM DTT, 5 mM MgCl2, 1 μM [α-^32P]NAD^+ and 8 pmol of WT ligase, NΔ38, NΔ78, or the indicated alanine mutants were incubated for 5 min at 37° C. The reaction products were resolved by SDS-PAGE and visualized by autoradiography. FIG. 12C: Nick joining reaction mixtures (20 μl) containing 50 mM Tris-HCl (pH 7.5), 10 mM (NH4)2SO4, 5 mM DTT, 5 mM MgCl2, 20 μM NAD^+, 1 pmol of ^32P-labeled nicked DNA, and increasing amounts of WT ligase or the indicated alanine mutants were incubated for 10 min at 22° C. The extents of ligation are plotted as a function of input protein.
To further probe the role of domain Ia in NAD^+ recognition and nucleotidyl transfer, single alanine substitutions were introduced at six positions in the Ia domain of E. coli LigA. The six mutated Eco ligase residues—Glu10, Tyr22, His23, Asp32, Tyr35, and Asp36—correspond to the six residues that were subjected to alanine scanning mutagenesis in AmEPV ligase (FIG. 11). […] The conserved positions are denoted by shaded boxes in FIG. 11. The Eco ligase mutants E10A, Y22A, H23A, D32A, Y35A, and D36A were produced in E. coli and purified by Ni-agarose chromatography in parallel with wild-type ligase (FIG. 12A).
To evaluate the roles of charge, hydrogen bonding potential, and steric constraints in the functions of the domain Ia residues implicated in the step 1 reaction with NAD^+, the effects of conservative substitutions were tested. Tyr22 and Tyr35 were replaced by Phe and Ser, His23 was changed to Tyr, and Asp32 and Asp36 were mutated to Glu and Asn. The recombinant mutant ligases were purified from soluble bacterial extracts by Ni-agarose chromatography (FIG. 15A). The specific activity of each mutant was determined under steady-state conditions by protein titration and normalized to the specific activity of wild-type ligase.

E. coli LigA [2] = type: biochemical; settings: for rate of ligase adenylation (kinetic pattern): 1 μM [32P-AMP]NAD+, 15-120 s; for ligase adenylation (ligase-AMP formation) with NAD+: qualitative
Method: as §1
FIG. 15A: Aliquots (5 μg) of wild-type (WT) E. coli ligase and proteins containing the indicated mutations in domain Ia were analyzed by SDS-PAGE. The Coomassie blue-stained gel is shown. The positions and sizes (in kDa) of marker proteins are indicated on the left. FIG. 15B: Ligase adenylation reaction mixtures (20 μl) containing 50 mM Tris-HCl (pH 7.5), 5 mM DTT, 5 mM MgCl2, 1 μM [α-^32P]NAD^+ and 8 pmol of WT ligase or the indicated mutants were incubated for 5 min at 37° C. The reaction products were resolved by SDS-PAGE and visualized by autoradiography.
Reaction mixtures containing (per 20 μl) 50 mM Tris-HCl (pH 7.5), 5 mM DTT, 5 mM MgCl2, 1 μM [^32P-AMP]NAD^+ and 8 pmol of ligase were incubated at 22° C. Aliquots (20 μl) were withdrawn at 15, 30, 60 and 120 s and then quenched immediately with SDS. The products were analyzed by SDS-PAGE. Formation of the ligase-[^32P]AMP adduct is plotted as a function of time.
The first step in DNA ligation involves formation of a covalent enzyme-adenylate intermediate.

B1: D32N: E. coli LigA with Asp32 mutated to Asn (protein, UniProt P15042 1-671, looked up, variant D32N)
DNA ligase: MESIEQQLTELRTTLRHHEYLYHVMDAPEIPNAEYDRLMRELRELETKHPELITPDSPTQRVGAAPLAAFSQIRHEVPMLSLDNVFDEESFLAFNKRVQDRLKNNEKVTWCCELKLDGLAVSILYENGVLVSAATRGDGTTGEDITSNVRTIRAIPLKLHGENIPARLEVRGEVFLPQAGFEKINEDARRTGGKVFANPRNAAAGSLRQLDPRITAKRPLTFFCYGVGVLEGGELPDTHLGRLLQFKKWGLPVSDRVTLCESAEEVLAFYHKVEEDRPTLGFDIDGVVIKVNSLAQQEQLGFVARAPRWAVAFKFPAQEQMTFVRDVEFQVGRTGAITPVARLEPVHVAGVLVSNATLHNADEIERLGLRIGDKVVIRRAGDVIPQVVNVVLSERPEDTREVVFPTHCPVCGSDVERVEGEAVARCTGGLICGAQRKESLKHFVSRRAMDVDGMGDKIIDQLVEKEYVHTPADLFKLTAGKLTGLERMGPKSAQNVVNALEKAKETTFARFLYALGIREVGEATAAGLAAYFGTLEALEAASIEELQKVPDVGIVVASHVHNFFAEESNRNVISELLAEGVHWPAPIVINAEEIDSPFAGKTVVLTGSLSQMSRDDAKARLVELGAKVAGSVSKKTDLVIAGEAAGSKLAKAQELGIEVIDEAEMLRLLGS
Q: With B1 as the molecule, how does the “Nick Joining Activity (% of WT)” value (E. coli LigA [1]) read?
A: 9 % of WT

Q: And the “rate of ligase adenylation (kinetic pattern)” value (E. coli LigA [2])?
A: faster than D32E

Q: What about the “ligase adenylation (ligase-AMP formation) with NAD+” value (from here on “ligase adenylation … with NAD+”) (E. coli LigA [2]) of the same molecule?
A: partially active

B2: D36N: E. coli LigA with Asp36 mutated to Asn (protein, UniProt P15042 1-671, looked up, variant D36N)
DNA ligase: MESIEQQLTELRTTLRHHEYLYHVMDAPEIPDAEYNRLMRELRELETKHPELITPDSPTQRVGAAPLAAFSQIRHEVPMLSLDNVFDEESFLAFNKRVQDRLKNNEKVTWCCELKLDGLAVSILYENGVLVSAATRGDGTTGEDITSNVRTIRAIPLKLHGENIPARLEVRGEVFLPQAGFEKINEDARRTGGKVFANPRNAAAGSLRQLDPRITAKRPLTFFCYGVGVLEGGELPDTHLGRLLQFKKWGLPVSDRVTLCESAEEVLAFYHKVEEDRPTLGFDIDGVVIKVNSLAQQEQLGFVARAPRWAVAFKFPAQEQMTFVRDVEFQVGRTGAITPVARLEPVHVAGVLVSNATLHNADEIERLGLRIGDKVVIRRAGDVIPQVVNVVLSERPEDTREVVFPTHCPVCGSDVERVEGEAVARCTGGLICGAQRKESLKHFVSRRAMDVDGMGDKIIDQLVEKEYVHTPADLFKLTAGKLTGLERMGPKSAQNVVNALEKAKETTFARFLYALGIREVGEATAAGLAAYFGTLEALEAASIEELQKVPDVGIVVASHVHNFFAEESNRNVISELLAEGVHWPAPIVINAEEIDSPFAGKTVVLTGSLSQMSRDDAKARLVELGAKVAGSVSKKTDLVIAGEAAGSKLAKAQELGIEVIDEAEMLRLLGS
Q: Which “Nick Joining Activity (% of WT)” value (E. coli LigA [1]) does the source give for B2 here?
A: 12 % of WT

Q: And the “rate of ligase adenylation (kinetic pattern)” value (E. coli LigA [2])?
A: faster than D36E

Q: And the “ligase adenylation … with NAD+” value (E. coli LigA [2])?
A: partially active

B3: D32E: E. coli LigA with Asp32 mutated to Glu (protein, UniProt P15042 1-671, looked up, variant D32E)
DNA ligase: MESIEQQLTELRTTLRHHEYLYHVMDAPEIPEAEYDRLMRELRELETKHPELITPDSPTQRVGAAPLAAFSQIRHEVPMLSLDNVFDEESFLAFNKRVQDRLKNNEKVTWCCELKLDGLAVSILYENGVLVSAATRGDGTTGEDITSNVRTIRAIPLKLHGENIPARLEVRGEVFLPQAGFEKINEDARRTGGKVFANPRNAAAGSLRQLDPRITAKRPLTFFCYGVGVLEGGELPDTHLGRLLQFKKWGLPVSDRVTLCESAEEVLAFYHKVEEDRPTLGFDIDGVVIKVNSLAQQEQLGFVARAPRWAVAFKFPAQEQMTFVRDVEFQVGRTGAITPVARLEPVHVAGVLVSNATLHNADEIERLGLRIGDKVVIRRAGDVIPQVVNVVLSERPEDTREVVFPTHCPVCGSDVERVEGEAVARCTGGLICGAQRKESLKHFVSRRAMDVDGMGDKIIDQLVEKEYVHTPADLFKLTAGKLTGLERMGPKSAQNVVNALEKAKETTFARFLYALGIREVGEATAAGLAAYFGTLEALEAASIEELQKVPDVGIVVASHVHNFFAEESNRNVISELLAEGVHWPAPIVINAEEIDSPFAGKTVVLTGSLSQMSRDDAKARLVELGAKVAGSVSKKTDLVIAGEAAGSKLAKAQELGIEVIDEAEMLRLLGS
Q: Which results are given for B3?
A: Nick Joining Activity (% of WT) (E. coli LigA [1]): 0.4 % of WT; ligase adenylation (ligase-AMP formation) with NAD+ (E. coli LigA [2]): more severely affected

B4: D36E: E. coli LigA with Asp36 mutated to Glu (protein, UniProt P15042 1-671, looked up, variant D36E)
DNA ligase: MESIEQQLTELRTTLRHHEYLYHVMDAPEIPDAEYERLMRELRELETKHPELITPDSPTQRVGAAPLAAFSQIRHEVPMLSLDNVFDEESFLAFNKRVQDRLKNNEKVTWCCELKLDGLAVSILYENGVLVSAATRGDGTTGEDITSNVRTIRAIPLKLHGENIPARLEVRGEVFLPQAGFEKINEDARRTGGKVFANPRNAAAGSLRQLDPRITAKRPLTFFCYGVGVLEGGELPDTHLGRLLQFKKWGLPVSDRVTLCESAEEVLAFYHKVEEDRPTLGFDIDGVVIKVNSLAQQEQLGFVARAPRWAVAFKFPAQEQMTFVRDVEFQVGRTGAITPVARLEPVHVAGVLVSNATLHNADEIERLGLRIGDKVVIRRAGDVIPQVVNVVLSERPEDTREVVFPTHCPVCGSDVERVEGEAVARCTGGLICGAQRKESLKHFVSRRAMDVDGMGDKIIDQLVEKEYVHTPADLFKLTAGKLTGLERMGPKSAQNVVNALEKAKETTFARFLYALGIREVGEATAAGLAAYFGTLEALEAASIEELQKVPDVGIVVASHVHNFFAEESNRNVISELLAEGVHWPAPIVINAEEIDSPFAGKTVVLTGSLSQMSRDDAKARLVELGAKVAGSVSKKTDLVIAGEAAGSKLAKAQELGIEVIDEAEMLRLLGS
Q: For B4, which “Nick Joining Activity (% of WT)” value (E. coli LigA [1]) is on record?
A: 4 % of WT

Q: And the “ligase adenylation … with NAD+” value (E. coli LigA [2])?
A: more severely affected
